According to patent US20240327544A1 (BIONTECH, published 2024):
Values joined by “and” are separate entries in the source; they are usually repeats but may differ in a detail not shown here. Equal entries are not always repeated.

Assays:
[1] = biological target: human PD-1, full-length, expressed on cells (human, UniProt Q15116 25-288); assay: cell-based or functional assay
[2] = biological target: T1, C1q (complement protein C1q from human serum) (human, UniProt P02745 23-245; P02746 28-253; P02747 29-245); assay: flow cytometry, activated human CD8+ T cells, FITC anti-C1q
T1 construct: Human serum (20%) was the source of C1q
T1 sequence (P02745 23-245 limits assumed, chain 1 of 3): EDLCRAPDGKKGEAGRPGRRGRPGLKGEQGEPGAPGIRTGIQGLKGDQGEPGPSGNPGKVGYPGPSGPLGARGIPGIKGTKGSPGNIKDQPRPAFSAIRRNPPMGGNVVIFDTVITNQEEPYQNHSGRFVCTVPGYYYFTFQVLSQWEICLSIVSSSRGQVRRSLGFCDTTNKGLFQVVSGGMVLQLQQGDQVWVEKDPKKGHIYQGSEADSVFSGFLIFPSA
T1 sequence (P02746 28-253 limits assumed, chain 2 of 3): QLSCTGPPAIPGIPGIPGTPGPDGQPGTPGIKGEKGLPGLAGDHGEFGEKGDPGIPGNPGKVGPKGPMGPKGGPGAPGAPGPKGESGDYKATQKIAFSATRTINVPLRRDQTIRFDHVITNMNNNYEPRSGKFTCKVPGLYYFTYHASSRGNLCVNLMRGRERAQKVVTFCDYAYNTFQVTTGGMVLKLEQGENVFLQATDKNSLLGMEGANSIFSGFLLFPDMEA
T1 sequence (P02747 29-245 limits assumed, chain 3 of 3): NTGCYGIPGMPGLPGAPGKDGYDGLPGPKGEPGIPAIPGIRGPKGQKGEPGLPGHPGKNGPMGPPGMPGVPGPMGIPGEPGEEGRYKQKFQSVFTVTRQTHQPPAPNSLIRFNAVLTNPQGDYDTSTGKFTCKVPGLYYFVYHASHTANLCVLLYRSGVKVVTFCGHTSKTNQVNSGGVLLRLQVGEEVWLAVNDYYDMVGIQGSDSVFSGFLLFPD

Sequence of human PD-1, full-length, expressed on cells (Q15116 25-288 limits assumed): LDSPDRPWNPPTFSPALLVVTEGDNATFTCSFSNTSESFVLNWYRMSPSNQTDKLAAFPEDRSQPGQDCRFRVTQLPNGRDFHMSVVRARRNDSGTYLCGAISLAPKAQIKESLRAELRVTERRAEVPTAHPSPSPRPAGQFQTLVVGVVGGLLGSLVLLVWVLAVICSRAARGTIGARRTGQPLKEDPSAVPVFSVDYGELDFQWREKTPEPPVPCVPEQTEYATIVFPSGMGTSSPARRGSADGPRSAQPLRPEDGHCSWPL

- EC50 of PD-1/PD-L1 checkpoint blockade (luminescence, PD-1/PD-L1 blockade reporter assay) [1]: 0.165 µg/mL and 1.12 nM
B1: IgG1-PD1 (antibody)
heavy: QVQLVESGGGLVQPGTSLRLSCSVSGFSLYSYNMGWVRQAPGKGLEYIGIISGGTIGHYASWAKGRFTISRDTSKTTLYLQMNSLTTEDTATYFCARAFYDDYDYNVWGPGTLVTVSSASTKGPSVFPLAPSSKSTSGGTAALGCLVKDYFPEPVTVSWNSGALTSGVHTFPAVLQSSGLYSLSSVVTVPSSSLGTQTYICNVNHKPSNTKVDKRVEPKSCDKTHTCPPCPAPEFERGPSVFLFPPKPKDTLMISRTPEVTCVVVDVSHEDPEVKFNWYVDGVEVHNAKTKPREEQYNSTYRVVSVLTVLHQDWLNGKEYKCKVSNKALPAPIEKTISKAKGQPREPQVYTLPPSREEMTKNQVSLTCLVKGFYPSDIAVEWESNGQPENNYKTTPPVLDSDGSFFLYSKLTVDKSRWQQGNVFSCSVMHEALHNHYTQKSLSLSPG
light: AIQLTQSPSSLSASVGGTVTITCQSSQSVYGNNQLSWYQQKPGQPPKLLIYQASKLETGVPSRFRGSGSGTQFTLTISSLQSEDFATYYCAGGYSSSSDTTFGGGTEVVVKRTVAAPSVFIFPPSDEQLKSGTASVVCLLNNFYPREAKVQWKVDNALQSGNSQESVTEQDSKDSTYSLSSTLTLSKADYEKHKVYACEVTHQGLSSPVTKSFNRGEC
notes: Humanized rabbit anti-PD-1 antibody, Fc-inert IgG1 kappa; also called MAB-19-0618 variable regions in a human IgG1m(f) L234F/L235E/G236R (FER) backbone
- binding result [2]: no binding (tested: antibody up to 30 µg/mL, 20% human serum)
